Data published in the supplement of paper PMC10126150.
± gives the standard deviation of the averaged measurements.

Tested on: ATP
Test: switch fluorescence ratio, 500 uM ATP over buffer (Cy3 cluster intensity, sum of 5 cycles each) (fold (ratio)); higher = stronger signal-on switching upon ATP binding; sequences stand for … in TCGTCGGCAGCGTCAGATGTGTATAAGAGACAGTTTTTTTTTTTTTTTTTTTTTTTTT…TC
Conditions: aptamer strand: ATP DNA aptamer (quencher-CACCTGGGGGAGTATTGCGGAGGAAGG + anchor), 100 nM annealed; ATP concentration: 500 uM
Procedure, shortened: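 Cy3-labelled switching-strand clusters on a modified Illumina MiSeq flow-cell were annealed to 100 nM quencher-labelled ATP aptamer, imaged in selection buffer, then imaged after 15 min with 500 uM ATP at 22 °C. Five buffer/ATP cycles ran, with NaOH stripping and re-annealing between them. The fluorescence ratio is summed target-cycle over summed buffer-cycle Cy3 intensity per cluster, averaged per switch-domain sequence. Clusters outside 100-1000 RFU were excluded.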
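Note: ATP exposure 15 min at 22 °C before imaging.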

Row | Sequence | switch fluorescence ratio
1 | GTAAAGTTTT | 0.991 ± 0.018
2 | GTAAATTAGT | 1.02 ± 0.04
3 | GTAAATTATG | 0.986 ± 0.018
4 | GTAAATTGTG | 1.01 ± 0.047
5 | GTAAATTTTT | 1.01 ± 0.017
6 | GTAACTGCAG | 0.993 ± 0.051
7 | GTAAGATGTG | 1.03 ± 0.028
8 | GTAAGGAAAG | 1.04 ± 0.062
9 | GTAAGGATGT | 0.988 ± 0.038
10 | GTAAGGCGCA | 0.9885 ± 0.0086
11 | GTAAGGGTTG | 0.961 ± 0.012
12 | GTAAGTGAGT | 0.994 ± 0.037
13 | GTAATAATGG | 0.988 ± 0.053
14 | GTAATAGAGG | 0.9774 ± 0.0096
15 | GTAATAGTTT | 1 ± 0.036
16 | GTAATATTTC | 0.992 ± 0.027
17 | GTAATGGGCA | 1.03 ± 0.054
18 | GTAATTATGT | 1.02 ± 0.016
19 | GTAATTGGAG | 0.992 ± 0.016
20 | GTAATTTGTT | 1.01 ± 0.014
21 | GTACCTATCG | 1.01 ± 0.03
22 | GTACGAAGTT | 0.973 ± 0.013
23 | GTACGAGGGG | 0.992 ± 0.016
24 | GTACGCGGAC | 1.07 ± 0.022
25 | GTACTGTCTC | 0.9929 ± 0.0049

Row | Sequence | switch fluorescence ratio
26 | GTACTTGGTC | 1.03 ± 0.048
27 | GTAGAAACGC | 0.998 ± 0.01
28 | GTAGAAAGGA | 2.3 ± 1.8
29 | GTAGCTGCGG | 1.02 ± 0.038
30 | GTAGCTTTGG | 1.04 ± 0.027
31 | GTAGGAAGTG | 0.9935 ± 0.0091
32 | GTAGGACTTG | 0.953 ± 0.025
33 | GTAGGAGGAG | 0.991 ± 0.032
34 | GTAGGCATGG | 1 ± 0.029
35 | GTAGGGAGTT | 0.977 ± 0.012
36 | GTAGGGGCGG | 1.0124 ± 0.00012
37 | GTAGGGGGAC | 1.05 ± 0.099
38 | GTAGGGTAAG | 0.988 ± 0.039
39 | GTAGTAAGGC | 2.23 ± 0.54
40 | GTAGTACCGG | 1.02 ± 0.028
41 | GTAGTAGGGC | 1.06 ± 0.016
42 | GTAGTAGGGG | 0.999 ± 0.015
43 | GTAGTATGAG | 0.999 ± 0.014
44 | GTAGTATGCA | 1.01 ± 0.02
45 | GTAGTGAGCT | 0.999 ± 0.05
46 | GTAGTGGCGA | 1.04 ± 0.026
47 | GTAGTTATGG | 1.04 ± 0.03
48 | GTAGTTTTGT | 0.987 ± 0.032
49 | GTATAAACCC | 1.03 ± 0.019
50 | GTATAATGAT | 0.977 ± 0.03

Row | Sequence | switch fluorescence ratio
51 | GTATATCTGT | 1.01 ± 0.052
52 | GTATCATGCC | 1.01 ± 0.011
53 | GTATCCAGGG | 1.13 ± 0.036
54 | GTATCTTGGG | 1.04 ± 0.042
55 | GTATGATTCG | 0.9843 ± 0.0051
56 | GTATGGGGGG | 0.985 ± 0.026
57 | GTATGGTCGG | 0.9991 ± 0.0074
58 | GTATGTACTG | 1.04 ± 0.04
59 | GTATGTTGGG | 1.08 ± 0.045
60 | GTATTCAGTA | 0.995 ± 0.022
61 | GTATTCGTTT | 1 ± 0.028
62 | GTATTGCCAG | 0.995 ± 0.029
63 | GTATTGGGGC | 0.9807 ± 0.0029
64 | GTATTTCATA | 1.01 ± 0.0031
65 | GTATTTTTAG | 0.993 ± 0.033
66 | GTCACCCTTT | 1.01 ± 0.014
67 | GTCACCGACT | 1 ± 0.013
68 | GTCAGAGAGT | 1.02 ± 0.013
69 | GTCAGGATTT | 0.9925 ± 0.0087
70 | GTCAGGCTGA | 0.97427 ± 0.00022
71 | GTCAGGGCGA | 0.9931 ± 0.0023
72 | GTCAGGGGGT | 1.04 ± 0.068
73 | GTCAGGGTAC | 1.09 ± 0.072
74 | GTCAGTGAAT | 0.988 ± 0.057
75 | GTCATAGTGG | 0.9804 ± 0.003

Row | Sequence | switch fluorescence ratio
76 | GTCATTTAAG | 0.991 ± 0.019
77 | GTCCAAGGGG | 1.04 ± 0.032
78 | GTCCGAAGGC | 0.988 ± 0.014
79 | GTCCGGCTCG | 0.9897 ± 0.0011
80 | GTCCTTTGCC | 1.06 ± 0.011
81 | GTCGAAAGGA | 0.9634 ± 0.0078
82 | GTCGAGGAAT | 1.003 ± 0.0092
83 | GTCGAGGGGA | 1.01 ± 0.035
84 | GTCGATTTAT | 0.986 ± 0.045
85 | GTCGCCGGGT | 0.994 ± 0.026
86 | GTCGCTTAGT | 0.973 ± 0.018
87 | GTCGGACATG | 0.993 ± 0.073
88 | GTCGGATAGT | 0.996 ± 0.013
89 | GTCGGCAGGT | 0.994 ± 0.015
90 | GTCGGCATGG | 1.07 ± 0.059
91 | GTCGGGAGGC | 1.02 ± 0.022
92 | GTCGGGATAT | 1.03 ± 0.018
93 | GTCGGGGAGG | 1.04 ± 0.031
94 | GTCGGGGTTA | 0.989 ± 0.036
95 | GTCGGTAAAC | 1.06 ± 0.014
96 | GTCGGTACGG | 1 ± 0.026
97 | GTCGGTATTT | 0.986 ± 0.03
98 | GTCGGTTGGG | 0.99 ± 0.026
99 | GTCGTAGCTT | 1.058 ± 0.0089
100 | GTCGTATAGG | 0.978 ± 0.023
